From patent US20220008527A1 (AGENUS, published 2022) come the findings set out here.

B1: polypeptide LGVVRPRALHRELDLVDDSPTPGSPGSFFRKNWLRLTW (SEQ ID NO: 77) (peptide)
peptide: LGVVRPRALHRELDLVDDSPTPGSPGSFFRKNWLRLTW
notes: also called polypeptide comprising PEP006; PEP006-containing polypeptide
B2: PEP028 (peptide)
peptide: FRNWLRLTW
notes: Synthetic peptide
B3: PEP058 (peptide)
peptide: FFRKNWLKLWK
notes: Synthetic peptide
B4: PEP027 (peptide)
peptide: FFRKNFLRLTF
notes: Synthetic peptide
B5: PEP013 (peptide)
peptide: FFRKNWIRITW
notes: Synthetic peptide
B6: PEP006 (peptide)
peptide: FFRKNWLRLTW
notes: Synthetic peptide
B7: PEP004 (peptide)
peptide: FFRKNLLRWTG
notes: Synthetic peptide
B8: PEP010 (peptide)
peptide: FFRKNWLRLFW
notes: Synthetic peptide
B9: PEP057 (peptide)
peptide: FFRKNWLKLRW
notes: Synthetic peptide
B10: PEP003 (peptide)
peptide: FFRKNWLLLTW
notes: Synthetic peptide
B11: PEP014 (peptide)
peptide: FFRKQWLRLTW
notes: Synthetic peptide
B12: PEP008 (peptide)
peptide: FFRKFWLRLTW
notes: Synthetic peptide
B13: PEP012 (peptide)
peptide: FFRKNWLKLTW
notes: Synthetic peptide
B14: PEP055 (peptide)
peptide: FFRKNWLKLKW
notes: Synthetic peptide
B15: PEP011 (peptide)
peptide: FFRKNWLRLKW
notes: Synthetic peptide
B16: PEP001 (peptide)
peptide: FFRKNLLRLTG
notes: Synthetic peptide
B17: PEP009 (peptide)
peptide: FFRKNWLRLLW
notes: Synthetic peptide
B18: PEP155 (peptide)
peptide: FFRKNLLRLTW
notes: Synthetic peptide
B19: PEP002 (peptide)
peptide: FFRKNRLLLTG
notes: Synthetic peptide
B20: PEP005 (peptide)
peptide: FFRKNRLWLTG
notes: Synthetic peptide

T1 sequence (P11142 whole entry): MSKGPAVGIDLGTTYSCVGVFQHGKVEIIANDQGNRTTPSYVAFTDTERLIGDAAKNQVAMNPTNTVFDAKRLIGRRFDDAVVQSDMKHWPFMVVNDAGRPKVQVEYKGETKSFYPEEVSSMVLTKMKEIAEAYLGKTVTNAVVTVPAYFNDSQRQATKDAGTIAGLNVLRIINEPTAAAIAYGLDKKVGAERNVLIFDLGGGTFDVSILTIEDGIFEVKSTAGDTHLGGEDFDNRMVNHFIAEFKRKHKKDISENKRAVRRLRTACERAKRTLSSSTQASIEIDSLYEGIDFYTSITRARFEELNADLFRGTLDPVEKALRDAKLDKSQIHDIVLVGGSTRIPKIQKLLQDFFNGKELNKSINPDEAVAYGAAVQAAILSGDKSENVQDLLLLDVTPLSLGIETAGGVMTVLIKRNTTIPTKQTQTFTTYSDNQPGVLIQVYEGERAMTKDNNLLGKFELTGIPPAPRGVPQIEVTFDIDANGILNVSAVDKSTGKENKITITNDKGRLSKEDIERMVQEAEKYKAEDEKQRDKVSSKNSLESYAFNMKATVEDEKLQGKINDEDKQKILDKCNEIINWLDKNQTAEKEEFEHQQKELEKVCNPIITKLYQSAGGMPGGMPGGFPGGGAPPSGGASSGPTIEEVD

The first assay concerns the target T1, recombinant human heat shock cognate 71 kDa protein (Hsc70) (human, UniProt P11142 1-646, limits assumed).
T1 construct: also called rhHsc70; human Hsc70
Kind of assay: size exclusion chromatography of polypeptide-Hsc70 mixtures, molar ratios 0.125:1 to 4:1 (FIG. 3A). Background: SEC sorts molecules by how far they enter the pores of the column.
Turning to B1, the binding result was “binds”.

The target in the next assay is T1, recombinant human heat shock cognate 71 …. Kind of assay: SEC of peptide-Hsc70 mixture; peptide:Hsc70 molar ratio 0.25:1.
As to B2, the “Percent complexation with Hsc70” value amounted to 24%.

Turning to B3, the “Percent complexation with Hsc70” value came to 22.7%.

With B4, the “Percent complexation with Hsc70” value is 19.1%.

Regarding B5, the “Percent complexation with Hsc70” value turned out to be 25.6%.

As to B6, the “Percent complexation with Hsc70” value was found to be 25.4%.

Take B7: the “Percent complexation with Hsc70” value came out at 15.4%.

In the case of B8, the “Percent complexation with Hsc70” value amounted to 19.1%.

As to B9, the “Percent complexation with Hsc70” value turned out to be 24.9%.

As for B10, the “Percent complexation with Hsc70” value is 26.8%.

For the molecule B11, the “Percent complexation with Hsc70” value stood at 29.3%.

In the case of B12, the “Percent complexation with Hsc70” value stood at 24.4%.

On to B13, for which the “Percent complexation with Hsc70” value turned out to be 29.9%.

Turning to B14, the “Percent complexation with Hsc70” value was 24.1%.

In the case of B15, the “Percent complexation with Hsc70” value worked out at 31.2%.

As to B16, the “Percent complexation with Hsc70” value turned out to be 23.4%.

Take B17: the “Percent complexation with Hsc70” value came out at 32.8%.

With B18, the “Percent complexation with Hsc70” value stood at 22.5%.

Take B19: the “Percent complexation with Hsc70” value came to 19.2%.

As to B20, the “Percent complexation with Hsc70” value stood at 16%.

For another assay the target is unchanged. Kind of assay: SEC of peptide-Hsc70 mixture; peptide:Hsc70 molar ratio 4:1.
With B2, the “Percent complexation with Hsc70” value was 87.5%.

Regarding B3, the “Percent complexation with Hsc70” value turned out to be 83.9%.

For the molecule B4, the “Percent complexation with Hsc70” value was determined as 90%.

Turning to B5, the “Percent complexation with Hsc70” value came out at 87.7%.

For the molecule B6, the “Percent complexation with Hsc70” value was determined as 91.8%.

For the molecule B7, the “Percent complexation with Hsc70” value worked out at 75.3%.

With B8, the “Percent complexation with Hsc70” value is 86.5%.

Turning to B9, the “Percent complexation with Hsc70” value was 88.3%.

On to B10, for which the “Percent complexation with Hsc70” value amounted to 87.6%.

Turning to B11, the “Percent complexation with Hsc70” value turned out to be 90.3%.

Consider B12, for which the “Percent complexation with Hsc70” value was determined as 81.6%.

With B13, the “Percent complexation with Hsc70” value was 89.5%.

B14: the “Percent complexation with Hsc70” value is 86.3%.

For B15, the “Percent complexation with Hsc70” value is 90.4%.

For B16, the “Percent complexation with Hsc70” value was determined as 90.1%.

For B17, the “Percent complexation with Hsc70” value was found to be 89%.

B18: the “Percent complexation with Hsc70” value is 86.6%.

Consider B19, for which the “Percent complexation with Hsc70” value was determined as 78.8%.

For the molecule B20, the “Percent complexation with Hsc70” value stood at 77.6%.

For another assay the target is unchanged. Kind of assay: SEC of peptide-Hsc70 mixture; peptide:Hsc70 molar ratio 1:1.
On to B2, for which the “Percent complexation with Hsc70” value stood at 75.6%.

On to B3, for which the “Percent complexation with Hsc70” value was 66.5%.

For the molecule B4, the “Percent complexation with Hsc70” value stood at 77%.

As to B5, the “Percent complexation with Hsc70” value was 69.6%.

As to B6, the “Percent complexation with Hsc70” value is 81.5%.

For the molecule B7, the “Percent complexation with Hsc70” value turned out to be 46.8%.

As to B8, the “Percent complexation with Hsc70” value was 64.9%.

Take B9: the “Percent complexation with Hsc70” value amounted to 72.2%.

Consider B10, for which the “Percent complexation with Hsc70” value was 67.2%.

B11: the “Percent complexation with Hsc70” value was determined as 80.9%.

Regarding B12, the “Percent complexation with Hsc70” value amounted to 61.8%.

B13: the “Percent complexation with Hsc70” value was found to be 79.2%.

Turning to B14, the “Percent complexation with Hsc70” value is 75.9%.

As to B15, the “Percent complexation with Hsc70” value is 81.6%.

Consider B16, for which the “Percent complexation with Hsc70” value was 68.1%.

As for B17, the “Percent complexation with Hsc70” value turned out to be 81%.

B18: the “Percent complexation with Hsc70” value was 75.6%.

As to B19, the “Percent complexation with Hsc70” value came to 48.7%.

As to B20, the “Percent complexation with Hsc70” value amounted to 54.8%.

A further assay shares this target. Description: SEC of peptide-Hsc70 mixture; peptide:Hsc70 molar ratio 0.5:1.
As for B2, the “Percent complexation with Hsc70” value worked out at 46.4%.

As to B3, the “Percent complexation with Hsc70” value came out at 43.5%.

For B4, the “Percent complexation with Hsc70” value was 49%.

Consider B5, for which the “Percent complexation with Hsc70” value came out at 48.3%.

Regarding B6, the “Percent complexation with Hsc70” value was 53.4%.

On to B7, for which the “Percent complexation with Hsc70” value was found to be 29%.

Turning to B8, the “Percent complexation with Hsc70” value is 42.2%.

With B9, the “Percent complexation with Hsc70” value came out at 50%.

For the molecule B10, the “Percent complexation with Hsc70” value is 45.6%.

Consider B11, for which the “Percent complexation with Hsc70” value was 54.4%.

Take B12: the “Percent complexation with Hsc70” value was determined as 38.3%.

Turning to B13, the “Percent complexation with Hsc70” value turned out to be 58.2%.

For B14, the “Percent complexation with Hsc70” value was 52.2%.

In the case of B15, the “Percent complexation with Hsc70” value turned out to be 58.2%.

Regarding B16, the “Percent complexation with Hsc70” value amounted to 44.7%.

For the molecule B17, the “Percent complexation with Hsc70” value was found to be 63.5%.

B18: the “Percent complexation with Hsc70” value was 48.1%.

Take B19: the “Percent complexation with Hsc70” value amounted to 32%.

Take B20: the “Percent complexation with Hsc70” value is 32.7%.

For another assay the target is unchanged. Description: SEC of peptide-Hsc70 mixture; peptide:Hsc70 molar ratio 2:1.
Regarding B2, the “Percent complexation with Hsc70” value was 84.1%.

For the molecule B3, the “Percent complexation with Hsc70” value is 78.8%.

Consider B4, for which the “Percent complexation with Hsc70” value amounted to 85.6%.

For the molecule B5, the “Percent complexation with Hsc70” value is 81.9%.

For the molecule B6, the “Percent complexation with Hsc70” value was 88.3%.

On to B7, for which the “Percent complexation with Hsc70” value amounted to 62.5%.

As to B8, the “Percent complexation with Hsc70” value turned out to be 79.3%.

For the molecule B9, the “Percent complexation with Hsc70” value was 82.8%.

With B10, the “Percent complexation with Hsc70” value came to 81.3%.

Turning to B11, the “Percent complexation with Hsc70” value came out at 88.1%.

On to B12, for which the “Percent complexation with Hsc70” value turned out to be 79.1%.

Consider B13, for which the “Percent complexation with Hsc70” value came to 86.2%.

Consider B14, for which the “Percent complexation with Hsc70” value was found to be 83.7%.

In the case of B15, the “Percent complexation with Hsc70” value was 87.8%.

On to B16, for which the “Percent complexation with Hsc70” value amounted to 82.5%.

For B17, the “Percent complexation with Hsc70” value stood at 85.3%.

In the case of B18, the “Percent complexation with Hsc70” value came to 82.9%.

B19: the “Percent complexation with Hsc70” value came out at 64.8%.

On to B20, for which the “Percent complexation with Hsc70” value was 67.6%.
